Values of other authors as cited in paper PMC9782320.

Molecular target: plasmin (Homo sapiens) (UniProt P00747)
Sequence of UniProt P00747 (P00747 581-810): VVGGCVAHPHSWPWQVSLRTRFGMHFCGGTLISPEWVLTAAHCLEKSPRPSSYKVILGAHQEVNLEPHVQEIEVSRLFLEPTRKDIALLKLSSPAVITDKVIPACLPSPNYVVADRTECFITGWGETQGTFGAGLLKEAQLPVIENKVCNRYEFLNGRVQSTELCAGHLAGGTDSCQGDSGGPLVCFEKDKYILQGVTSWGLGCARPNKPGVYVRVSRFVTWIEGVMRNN

Substance: staphylokinase (from UniProt P68801)
- Kd: 10 nM
